{"source": "paper PMC9800250", "proteins": {"B1": {"name": "ScGPPC2MT (GPP C2-methyltransferase) (Streptomyces coelicolor A3(2)) (protein)", "chain": "MTTETTTATATAKIPAPATPYQEDIARYWNNEARPVNLRLGDVDGLYHHHYGIGPVDRAALGDPEHSEYEKKVIAELHRLESAQAEFLMDHLGQAGPDDTLVDAGCGRGGSMVMAHRRFGSRVEGVTLSAAQADFGNRRARELRIDDHVRSRVCNMLDTPFDKGAVTASWNNESTMYVDLHDLFSEHSRFLKVGGRYVTITGCWNPRYGQPSKWVSQINAHFECNIHSRREYLRAMADNRLVPHTIVDLTPDTLPYWELRATSSLVTGIEKAFIESYRDGSFQYVLIAADRV"}, "B2": {"name": "ScGPPC2MT (GPP C2-methyltransferase) (Streptomyces coelicolor A3(2); F222Y/G202M) (protein)", "chain": "B1 chain with G202M, F222Y"}}, "key": {"[1]": {"substrate": "CC(C)=CCC/C(C)=C/COP(=O)(O)OP(=O)(O)O", "assay": "HPLC of S-adenosylhomocysteine formation, steady state", "format": "biochemical, Streptomyces coelicolor", "details": "100 μM SAM, 10 mM MgCl2, pH 7.0, 30°C, 20 min, 2 μM enzyme"}, "[2]": {"substrate": "CC(C)=CCOP(=O)(O)OP(=O)(O)O", "assay": "HPLC of S-adenosylhomocysteine formation, steady state", "format": "biochemical, Streptomyces coelicolor", "details": "100 μM SAM, 10 mM MgCl2, pH 7.0, 30°C, 20 min, 5 μM enzyme"}}, "note": "Changes are numbered by the printed parent chain. Names may count otherwise.", "data": [{"protein": "B1", "values": [{"measurement": "Km", "setting": "[1]", "value": "0.88 ± 0.09", "unit": "µM"}, {"measurement": "kcat", "setting": "[1]", "value": "(4.90 ± 0.16) × 10^−4 s^−1"}]}, {"protein": "B2", "values": [{"measurement": "Km", "setting": "[2]", "value": "5.33 ± 0.81", "unit": "µM"}, {"measurement": "kcat", "setting": "[2]", "value": "(9.59 ± 0.25) × 10^−5 s^−1"}]}]}
